± gives the uncertainty stated by the source.
B1: Lysine-specific demethylase 2B, residues 656 to 722; numbered along this chain, Q8NHM5 (parent)
chain: LPHTAVCLVCGEAGKEDTVEEEEGKFNLMLMECSICNEIIHPGCLKIKESEGVVNDELPNCWECPKC

Variants of: B1
Assay: abundance fitness (aPCA) (normalised: wild type 0, dead -1); higher = more abundant; growth selection in yeast, the domain comes from the species named
Details: Homo sapiens

Variant	abundance fitness
C33N	-0.481 ± 0.29
C33Y	-0.621 ± 0.44
C33D	-0.852 ± 0.24
A5Q	-0.095 ± 0.22
A5N	-0.051 ± 0.26
A5T	0.138 ± 0.16
A5R	0.073 ± 0.14
A5P	0.006 ± 0.13
M29L	-0.274 ± 0.1
M29G	-0.247 ± 0.082
M29C	-0.026 ± 0.14
M29S	0.039 ± 0.077
E21R	0.034 ± 0.099
E21L	-0.284 ± 0.082
E21D	-0.028 ± 0.22
E21M	-0.062 ± 0.12
E21T	0.238 ± 0.11
E21Y	-0.035 ± 0.31
E21C	-0.068 ± 0.17
E21V	0.06 ± 0.11
S34L	-0.36 ± 0.14
S34G	-0.106 ± 0.082
S34V	-0.078 ± 0.096
S34A	-0.273 ± 0.13

Variant	abundance fitness
S34D	-0.153 ± 0.18
S34T	0.082 ± 0.2
S34K	-0.021 ± 0.11
S34Q	0.027 ± 0.12
E23Q	-0.21 ± 0.33
E23Y	-0.36 ± 0.33
E23M	-0.088 ± 0.095
F26I	0.028 ± 0.13
F26E	-0.176 ± 0.1
N60M	-0.234 ± 0.1
N60K	-0.176 ± 0.12
N60P	-0.128 ± 0.16
N60Q	-0.155 ± 0.14
N60E	-0.211 ± 0.098
N60H	-0.127 ± 0.22
N60F	0.153 ± 0.19
H3F	-0.359 ± 0.17
H3Q	-0.015 ± 0.12
H3K	0.506 ± 0.1
H3L	0.048 ± 0.074
H3P	-0.14 ± 0.14
H3Y	-0.328 ± 0.25
E20H	-0.176 ± 0.21
E20R	0.033 ± 0.07

Variant	abundance fitness
E20F	-0.343 ± 0.12
P59V	0.007 ± 0.17
P59Q	-0.024 ± 0.26
P59G	-0.076 ± 0.092
P59A	-0.117 ± 0.1
I39C	-0.216 ± 0.23
I39S	-0.129 ± 0.086
I39E	-0.256 ± 0.085
I39G	-0.141 ± 0.067
I39K	-0.021 ± 0.12
I39A	-0.029 ± 0.068
I39M	0.119 ± 0.11
I35Q	-0.149 ± 0.091
I35V	0.037 ± 0.096
I35R	-0.022 ± 0.08
I35N	-0.295 ± 0.23
H41G	-0.903 ± 0.12
H41Y	-0.912 ± 0.33
V19W	-0.429 ± 0.17
V19G	-0.193 ± 0.078
V19D	-0.459 ± 0.23
E16V	-0.258 ± 0.094
E16T	0.167 ± 0.16
E16N	-0.646 ± 0.29

Variant	abundance fitness
E16M	-0.148 ± 0.13
E16A	-0.378 ± 0.15
E16W	-0.638 ± 0.24
E16F	-0.497 ± 0.22
C7Y	-1.04 ± 0.2
C7T	-0.491 ± 0.41
C7D	-0.902 ± 0.34
C10L	-1.01 ± 0.14
C10I	-1.04 ± 0.27
C10Y	-0.66 ± 0.39
C10G	-0.277 ± 0.083
C10M	-0.613 ± 0.17
C10N	-0.259 ± 0.33
C10T	-0.244 ± 0.094
C10F	-0.868 ± 0.19
A13S	0.177 ± 0.073
A13M	0.286 ± 0.1
A13I	0.169 ± 0.17
A13F	0.001 ± 0.14
A13K	0.175 ± 0.14
A13T	-0.022 ± 0.13
A13L	-0.077 ± 0.075
K25C	-0.329 ± 0.21
K25Y	-0.677 ± 0.2

Variant	abundance fitness
K25V	-0.525 ± 0.1
K25L	-0.441 ± 0.083
K25F	-0.602 ± 0.14
P2R	0.664 ± 0.11
P2C	0.396 ± 0.13
P2S	0.729 ± 0.13
P2Y	0.713 ± 0.097
P2K	0.78 ± 0.15
P2I	0.783 ± 0.15
P2A	0.708 ± 0.14
S50R	-0.128 ± 0.08
S50V	0.039 ± 0.068
S50C	0.078 ± 0.084
S50H	-0.208 ± 0.16
S50G	0.169 ± 0.073
S50W	-0.156 ± 0.13
V54E	0.024 ± 0.12
V54Q	0.135 ± 0.49
V54S	-0.284 ± 0.16
V54R	0.042 ± 0.14
V54G	-0.182 ± 0.08
K66M	-0.434 ± 0.14
K66G	-0.263 ± 0.12
K66D	-0.064 ± 0.16

Variant	abundance fitness
K66W	-0.846 ± 0.24
K48Y	0.011 ± 0.25
K48R	-0.168 ± 0.085
K48S	-0.155 ± 0.089
K48N	0.222 ± 0.19
K48C	-0.179 ± 0.15
K48Q	0.108 ± 0.11
T18Y	-0.427 ± 0.29
T18I	-0.14 ± 0.11
N55R	-0.015 ± 0.09
N55T	-0.101 ± 0.12
N55K	-0.591 ± 0.34
N55D	-0.031 ± 0.35
G14F	0.104 ± 0.18
G14A	-0.428 ± 0.1
G14S	-0.043 ± 0.081
E38H	-0.566 ± 0.44
E38S	-0.06 ± 0.093
E38W	-0.163 ± 0.11
E38K	-0.206 ± 0.33
E38C	-0.291 ± 0.14
E38I	-0.085 ± 0.13
E22D	-0.153 ± 0.19
E22I	-0.131 ± 0.34

Variant	abundance fitness
E22H	-0.099 ± 0.12
E22L	-0.011 ± 0.066
E22P	-0.449 ± 0.23
E22T	0.171 ± 0.11
L58P	-0.408 ± 0.16
L58V	-0.036 ± 0.078
L58S	0.051 ± 0.088
L58Q	-0.107 ± 0.16
G11M	-0.308 ± 0.087
G11A	-0.139 ± 0.13
G43Y	-0.02 ± 0.2
G43P	-0.526 ± 0.15
G43H	-0.433 ± 0.32
G43Q	-0.383 ± 0.13
G43N	-0.195 ± 0.22
G43D	-0.064 ± 0.2
P65R	-0.364 ± 0.079
P65T	-0.634 ± 0.15
P65V	-0.503 ± 0.092
P65W	-0.432 ± 0.1
P65L	-0.606 ± 0.12
L28N	0.476 ± 0.18
L28S	0.068 ± 0.087

— the Human Domainome abundance scans (Beltran et al. 2025)
